From PMC5472190

Experiments:
[1] = biological target: nuclear egress complex (NEC), heterodimer of pUL31 and pUL34 (herpes simplex virus 1, strain F) (UniProt P10215); assay: cryo-electron tomography; tomograms of nuclear sacs from US3-null-infected Vero cells; 188 ring subtomograms, rotational symmetry by ROTASTAT, subtomogram averaging
[2] = biological target: triplex of the HSV-1 capsid (herpes simplex virus 1, strain F); assay: cryo-EM structure; icosahedral reconstruction of isolated PEVs (123 particles), projection matching from a starting map of in vitro-matured B-capsids that lack CCSC and pUL35; ~2 nm around the capsid shell, ~3.5 nm for the whole particle

Substance	stoichiometry N [1]	occupancy [2] [%]
nuclear egress complex (NEC), heterodimer of pUL31 and pUL34 (from UniProt P10215 1-306; P10218 1-275)	7	
heterodimeric pUL17/pUL25 complex, C-capsid-specific complex (CCSC) (from UniProt P10201 1-703; P10209 1-580)		100
